test system: T1, DasR (Streptomyces lincolnensis NBRC_13054), ORF:7245352e; assay: EMSA; conditions: EMSA kit, 20 uL, 50 ng/uL Cy5 probe, 6% non-denaturing PAGE; fifth lane with 10 mg/mL salmon sperm DNA; buffer, pH, salt and temperature not given
T1 sequence: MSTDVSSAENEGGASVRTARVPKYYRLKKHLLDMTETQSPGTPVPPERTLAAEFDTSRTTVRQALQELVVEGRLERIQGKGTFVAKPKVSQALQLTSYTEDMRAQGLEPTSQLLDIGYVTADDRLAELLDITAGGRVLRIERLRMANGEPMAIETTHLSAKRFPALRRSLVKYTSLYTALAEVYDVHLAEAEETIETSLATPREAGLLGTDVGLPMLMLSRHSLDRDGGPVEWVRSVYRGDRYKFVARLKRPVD

Sequence	binding
AGCCAGTGGCGATAAGACGCACGTACGCAACTCCTTTCGGTTTCCCAGGAGTCACTCCCCGGTCCGGACGGGACATGAACTAATTCAGCTACTTATCGGTCAATCTTGAGCGCGTAGTGCCTTCATGTGGTCGGCAATGCCAGGTTCATGACATTCTCGAATGCTCGGCAATCACAGGCCCTACCGGCGGGGAGGACGCTGGTGGAGTTCGAGATCTTATCGCCACTGGCT (double strand) [SLINC_4481 promoter]	no binding
AGCCAGTGGCGATAAGAGGGCCTGGATGAGCTGCCTGTCCACCGCGTCCATGCGATCGAAGCCTTCCGATGAAGAGATCCCGAAGTGATGAGAGGTACTGCCCTGTGCCCTGCTGCTCTGTGCCGTGCTGCCCTGTGCCCTACTGCCCTGTGTCCTCTTATCGCCACTGGCT (double strand) [SLINC_4906 promoter]	no binding
AGCCAGTGGCGATAAGATATCCTCTTTCCCCGGGAGAGCCGGTCCCCGTGGTTGTCGCGACGGATGCTGTGGGTCTTCGGCGGGGTGTTCGCCCTCGGTACGGCACTCTTCGCGCTGATTTCCCTCCTGCGGTCGGATTTCCGCCTCTCCGTGGTCGAGATCGGTGCGGTGCTCGCGATCGTGGGACTGCTGACCTGGGCCGCTTCACGCTGCCAGGCCCGAGACACACCGTGTGTACCGAAGCGACTGCCTGGGACGCTACGGGCCGGATGGACTTATCGCCACTGGCT (double strand) [lmrA promoter]	no binding
AGCCAGTGGCGATAAGATGACATGTCTCACGGGGGACAGTGTGACCCCAGGACCCGCAAGAGGTCTAGTCCACTCACGTGGTGTAGACCTTAGGGCGGCAATATGTATGACCTTTCGAGAGTTTTTCGATCAGTGATCTTGAGGCGGTTGGCAGTGCGGCGGCGTAGGACTTATCGCCACTGGCT (double strand) [nagK promoter]	binds
AGCCAGTGGCGATAAGATGACTCAAAAGACTCTCCTCACCACACGCGCCACGTAACGGTGGGCACGTGGCGCGCATGACGTTCGTGCAGAAGCAGTTGTCGTTGTGGACGCAGGCACCGGTGGCCCGCTTATTCAGTTGTGAAGTCTGGTTGCGCGACGCGGCGCGCGAAGTCTGTTGCTAGAGCTCTTATCGCCACTGGCT (double strand) [SLINC_6156 promoter]	no binding
AGCCAGTGGCGATAAGGCTGGGCCTGCCGTTCTCAAGGGGCTGCACGGGGTGTGTGGTTTAGACCAATCCAGCCTCCAATCTAACAGAACCTCGCCCGGCCTCCCAGGTCTGCCGGGTGTCCCGGAGATGACCGGAAACCCTCGGCGAGGGCACCCCTCGCCCCGCGGTCCCTACGTCAGCGAACTTATCGCCACTGGCT (double strand) [nagB promoter]	binds
AGCCAGTGGCGATAAGGGTTCCTGCATATGTAGCTCGTATAACGGCTGGTCAGAGCCGTTCCAGCACTCTTGACAGGTGTATTGGCCTGGTCCAAGCTCCGGGTACTGGTCTACACCATTGGTCCAGGTCCCGGCTCCATGGGCGGGGGGTGTGGGCATCCCTGAGGAGGCTTATCGCCACTGGCT (double strand) [dasA promoter]	binds
AGCCAGTGGCGATAAGTCACTCGGTCTTCCCGTCCGCCGGACCGCCAACCCCTACCTCGCCAGGGCCCTGGGATAGGCCGGCGGGCGGCGCCGCCCGTGACGCGTAGCTGCCCTGGACGAAGGAGGCCACGCGTCGGCCGCGCCACTCCTGCGGGGCGCCCGGGCCGAGCGCGGTGACCGTGCCGGGCTGCGTAGGCTCACAGACATGGCTGAGATCGGGCTGCGTGCTTATCGCCACTGGCT (double strand) [SLINC_3938 promoter]	no binding

From publication PMC11180011
